Here are results for two molecules from PMC7904846 (2021).

B1: Nb C184 (VHH)
VHH: QVQLQESGGGSVQAGGSLRLSCVASGYTVSRGYMGWFRQAPGKEREAVAAIRTGSGSTYYADSVKGRFTISQDNAKNTVYLQMNSLKHEDTGMYYCAASLWYGGNWQSWGSYNYWGQGTQVTVSS
B2: CD105 (natural protein)
chain: ETVHCDLQPVGPERGEVTYTTSQVSKGCVAQAPNAILEVHVLFLEFPTGPSQLELTLQASKQNGTWPREVLLVLSVNSSVFLHLQALGIPLHLAYNSSLVTFQEPPGVNTTELPSFPKTQILEWAAERGPITSAAELNDPQSILLRLGQAQGSLSFCMLEASQDMGRTLEWRPRTPALVRGCHLEGVAGHKEAHILRVLPGHSAGPRTVTVKVELSCAPGDLDAVLILQGPPYVSWLIDANHNMQIWTTGEYSFKIFPEKNIRGFKLPDTPQGLLGEARMLNASIVASFVELPLASIVSLHASSCGGRLQTSPAPIQTTPPKDTCSPELLMSLIQTKCADDAMTLVLKKELVAHLKCTITGLTFWDPSCEAEDRGDKFVLRSAYSSCGMQVSASMISNEAVVNILSSSSPQRKKVHCLNMDSLSFQLGLYLSPHFLQASNTIEPGQQSFVQVRVSPSVSEFLLQLDSCHLDLGPEGGTVELIQGRAAKGNCVSLLSPSPEGDPRFSFLLHFYTVPIPKTGTLSCTVALRPKTGSQDQEVHRTVFMRLNIISPDLSGCTSKGLVLPAVLGITFGAFLIGALLTAALWYIYSHTRSPSKREPVVAVAAPASSESSSTNHSIGSTQSTPCSTSSMA

Some targets named below: C59; C50; C86; C68; C168.
Holding throughout (assay): SPR
On the technique in general: SPR reads the build-up and loss of mass on a sensor chip optically.

Experiment [1] deals with B2.
Experiment [2] has as its target B2.

What is called koff is the first-order rate constant of dissociation. A lower koff goes with slow dissociation. The Kd is the equilibrium constant for the complex coming apart. For B1, the koff with CD105 [1] is 0.00188 s⁻¹. The same molecule yielded a Kd with CD105 [2] of 44.7 nM.

For B2, the Kd was 65.9 nM in the experiment with C59; 16.2 nM with C50; 42.6 nM with C86; 28.9 nM with C68; 89 nM in the experiment with C168. Besides, the dissociation rate constant (koff) with C59 is 0.00255 s⁻¹; with C50 it was 0.00132 s⁻¹; with C86 it was 0.00144 s⁻¹; with C68 it was 0.00171 s⁻¹; in the experiment with C168, 0.00391 s⁻¹.
